The values that follow come from a protein production outcome set (Wang et al. 2014).
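Further: failed if final PepcDB status was selected cloned or expressed and not failed if soluble or beyond.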

The data set in a line: label from the status in PepcDB records.
In the case of “MSTTQLKVKEINEELDSRPAVPPINDIRSYIAALEAHGVLHRVKAEVDWKFELAHISKVNEEQKGPALLYENVKGNTIPVFTSAFTTPERIAICLEQDPSLSMCQLSRKWMELTTKQMIKPTFVKNPPVMENIIEEKDVDLENFPAPWFYPDDGGRFFGTSGYLVTQDPDTGWTNLGTYRSQILGKNILGSQIISGKHGDFHMKKYQERGEKMPVAYVVGGDPILFLASSTLVSAQTDEYDVGGALRGRPIEVFKSDLTGLTLPANAEIIVEGWMDPEELMEEGPFGEYTGYYSGNKMKDYPKPVIRVKRIIHRNKPIFWSTTVGKPINDTHMVQSINRTATLWHDLETMKVPGIQSVYFPAAATGRFWVVASVKQMYPGHSNHVADAINGSTTGHYGVKGIIIVDHDIAADDMDRVWWALAVRFDPKRSTQIITRGRSTPLDPGLPIEARDVVSRIILDATIPYEWKNKPNEIFMDRTVLQKVSDRWNEYGFTGASPVAEMIPRLTRPEVKKK”, the protein production result was “failed”.
“MKKFLFILSLFCVLSYAYELKLNANITALKLDKQNLYIGTDKGEILQYNIKDKSLKELLSLPKIKNYYGDDFAKIYNIDIFKHTLLILSEGDFGAKNLSFYKENLQIKKLEENSIIKAFFINENTYLLISIGSEIELIDKSLKNIKKFNFSHSSLNDAVLNEDKSRLIAGFESGEVELFDLKNWKMLKNYDKMHKDNIYQVDFKNNVILSCGTDRRIGVVKNEEQNFLQKDFLIYTCALSPSGEFAVYSDNEAGVSEVFSTSDFKPVKTFNNENLMSEFIIFLNNKDFIVSGFGDSIMFRSIDE”: the protein production result is given as “failed”.
Consider “MTDDVDDGWAASAAAWIIEQGEDGDYGRRFVLDAPMRARIEGRGFRNALDVGCGEGRFCRIMQRAGIRTTGIDPTEALLARARELDPRGDYRLGRAETMDIDACFDLVVSYLSLIDIPDLGTAIAKMVGALRPGGTLLIANLTSFNTAGQPDGWARDRKGEMRFAIDHYMDERPIWLSWRGIRLQNWHRPLGTYMTLLLDHGLQLRLFVEPEPTSGDPRRNDLHRRVPYFHMMEWQKPA”, for which the protein production entry is given as “failed”.
Turning to “MAEGKAMSEFLPFSRPAMGVEELAAVKEVLESGWITTGPKNQALEQAFCQLTGNQHAIAVSSATAGMHITLMALKIGKGDEVITPSLTWVSTLNMISLLGATPVMVDVDRDTLMVTPEAIESAITPRTKAIIPVHYAGAPADIDAIRAIGERYGIAVIEDAAHAVGTYYKGRHIGAKGTAIFSFHAIKNITCAEGGLIVTDNENLARQLRMLKFHGLGVDAYDRQTWGRAPQAEVLTPGYKYNLTDINAAIALTQLVKLEHLNTRRREIAQQYQQALAALPFQPLSLPAWPHVHAWHLFIIRVDEQRCGISRDALMEALKERGIGTGLHFRAAHTQKYYRERFPTLSLPNTEWNSERICSLPLFPDMTTADADHVITALQQLAGQ”, the protein production result is reported as “failed”.
To “MDERPEGGDAQGAREGRDARGDGEPDEVVSGELLPYDDIAGVAAASVGLHALADDLAGERRELAVELRKFFVVLRLSVRRYAALRPYSPSSVSRYLSGDLVAPDHFVATLMDDVGRELGRPLSAQARGRVTGLQRAALRSSNSRAWKVQELEDRLAAAHQDAQVARTQADAVATLLHAERQRVAGVEEERQELARTLEAHQATSGAELDVLRAQQHRVRAERDTLRRRVADLEAALAAAEHRVAEAEQRCADLEHELLTADAAAAAEESAAAEQERARQQAELGSLRDEVARLRVAAERVPETSPARGTQAPRTSVHGAEADATGPVSGDRSAAAPADVPGAASSVTIVYAGFNRAWAAWIGDRLERWGVRAVLMLWDVPADIPLIDLLRDLKLAEGRILIVVSEWYFQLGLRSHDEWNEALREVVAPDPSRFVAVSVTNAPVPSAAAVLAAVDLTDTGADEAERRLLARLVGLPGDSLPAASGGERRGPRFPAATPEVWGGVPRRNTRFTGRESLLSDAYSLLKGAEPGAGVLTLHGMSGVGKTQLAVEYVYRFSSEYDVVWWVGADNRGVFRQTLAELASRLGLSTGAEYGERLRAVRDSLRRGDPYARWLLILDGADDPDQIEDLVPTGPGHVLITSRNLKWGEHNSELLEVPVYDRPESVAFIRRRAPRLAEADADRLAEALEDLPLLLDQTAGWLNDSDLSVGEYIALLDGGIDQDVVKVSADFPIAFRTAWSILLNKVRETVPEAVDLLRLCTFFAPGLIPVRFLREMPHNELPETITGLLNDRLLWNKAIHQLRQYSVVRLESHEAATDGSTSSGESLYLHRMVHQIVRNDMPEDERHEFAAVVRRALASADPGRPTDTRHWGEYAEIVPHLKYADVLDSPDPGVQRLVLNCLGYLHLSGRYAAGVELAERALEAWRELLGDTHPVIWELTAHHTNLLRSTGDYRRTEAVDRAAVEHLREERGELDPDHLRAAAGLAADLRGLGRYGEALELTRRLLTSCLDLLGEQDSRTLDAQHDLGFSLRLLGRYEEALDVDRRTLEARRALLSGRHPGILLSETSCATDLRLLGHYAEAESAQATNARAQRAVMGSDNPQTLRAEHNLALCQYRAGDREKAGKLFSRVLERYERTLGETDPLTLAAAVSQSCFAREYGDIDQAGAASESLIARYEAMLTDGHPFTIGARANHVLLLRQVGARDEARFGAEKALTAMAAAMGESHPWTLGCAINAAAVRQFIGDVESAAELSGSTVARATDALGRTHPLTLSARVAQAADLRGLREHRRAEEIEQEVLADLAATLGSRHVHTVSARSRNRPYWDFEPQPT” belongs “failed”.
The result for “MKIFRSIDEIREPLPSPVVTIGNFDGVHLGHREIFRRVKREAARLDGVSMVITFTPHPLKVLGLRKELRLINTYAEKELLIEASGIDCLLTIPFTAEFAAIGAERFVGEILVGRIGVKKLVIGYDYAFGRNREGDVAMLRRMGEEHGFEVEVLEQIASGETVYSSSAVRRMIAAGNVREVVSLIGRHYSVGGTVVHGRRRGKDLGFPTANLRTEKELIPAAGVYAVKVRVDDTIRDGACNIGNNPTFGNEEVTVEVHILDFDGDLYGKEIRVYFVDRVREELRYPDLNALKEGISRDVARCRELLAGVSIIEYRDYLGGDAA” reads “failed”; that for “THSETITIPVFDTQVAGTLLTPRAKLPGVLFVHGWGGSQRFDLSRARDIAGLGCICLTFDLRGHAATEAQRRQVTREDSLRDIMAAYDALIAHPAVDTSAIAVVGSSYGGYLAAILTTLRAVRWLALHVPALYRDDEWAQPKLQLDRAAISAYRHATVAPEGNRALSACSSFRGDVLIVEAEHDDYIPHSTIMSYRGAFLHSHSLTHRIVDGADHALSDKRCQQAYSSILLNWATEMV”, “failed”.
Consider “MAAEIGSDSQLKRRRRRDPEGSEKTELSEREPALAVEGREENDDENEERWVGPLPVEATLAKKRKVLEFERVYLENLPSASMYERSYMHRDVITHVVCTKTDFIITASHDGHVKFWKKIEEGIEFVKHFRSHLGIIESIAVSSEGALFCSVGDDKAMKVFDVVNFDMINMLKLGYFPGQCEWIYCPGDAISSVAASEKSTGKIFIYDGRGDNQPLHIFDKLHVSPLTQIRLNPVYKAVVSSDKSGMIEYWTGPPHEYKFPKTVNWEYKTDTDLYEFAKCKAYPTSICFSPDGKKIATIGSDRKVRIFRFLTGKLMRVFDESLSMFTELQQMRQQLPDMEFGRRMAVERELEKVDAVRLINIVFDETGHFVLYGTMLGIKVINVETNRCVRILGKQENIRVMQLALFQGIAKKHRAAATIEMKASENPVLQNIQADPTIVCTSFKKNRFYMFTKREPEDTKSADSDRDVFNEKPSKEEVMAATQAEGPKRVSDSAIVHTSMGDIHIKLFPVECPKTVENFCVHSRNGYYNGHTFHRIIKGFMIQTGDPTGTGMGGESIWGGEFEDEFHSTLRHDRPYTLSMANAGSNTNGSQFFITVVPTPWLDNKHTVFGRVTKGMEVVQRISNVKVNPKTDKPYEDVSIINITVK”, for which the protein production result is given as “failed”.
Consider “MTAYWIAHVTIHDMQQYQEYMKLAPAAFQKYGAKFLARGGESVCVEGQAYQRHVIIEFPDLATAQQCYDSEEYKQARLAREGCADVMISFVEGLPTN”, for which the protein production entry is given as “failed”.
The result for “MARVQIDLPDKFIYSTKLQVRIGDVAAGFHMGNHMLISYLNEALLLFFREAGVIGMFGTKMNLIDADLAVIYKTEAAHGDMLRVDLGIIPSGIYGFDAFYRVTNERTGEEIAIAKMAMLFFDYEQRQISPVPEAFTVALPKIYNRAIPSTE” reads “failed”.
Regarding “KTMKMRKFTIADASLERSPGQEADISVGNLVDERHGGPITIGYGRYAPGQSLTETMAVDDVMIVLEGRLSVSTDGETVTAGPGEIVYMPKGETVTIRSHEEGALTAYVTYPHWRPAHA”, the protein production entry was “not failed”.
In the case of “MDGEIDADELRSKLDEETVRVVDIRSPGAFERGHIPESENVPFPSLVDEVERFEGDDEVVTVCPKGKSSVQAARLIASYEGFDGDVVSFAPGLNGWDGPLERAEDEETPADTAAADRDSDEGPAAPF”, the protein production entry is “failed”.
With “MNWGEGEWNSFFHFFTKEFINMSESFKELFEQSIAGAQFYPGAIITAKVIDIDDDFVTLNAGLKSEGIVAVEEFYDKNGELEVKVGDTVEVALDSVEDGHGETLLSREKAKRQEAWRKLSKCHENNETVTGLISGKVKGGFTVEIGSIRAFLPGSLVDVRPVRDPSYLEGKELEFKVIKMDLKRNNIVVSRRAVVEEESSADRQALLESLHDGQELHGIVKNLTDYGAFIDLGGIDGLLHITDISWKRVKHPSEVLSVGQDVKVKVLSFDSERNRVSLGMKQLGNDPWVDLVERYPIGKRLQGKVTNITDYGCFVEIEEGVEGLVHMSEMDWTNKNVHPSKVVSLGDVVDVMVLEIDEERRRISLGMKQCVGNPWQQFASTHNKGEKVKGKIRSITDFGIFIGLDGDIDGLVHLSDISWTVPGEEAVKQFKKGQELEAVILAIDPERERISLGLKQLEGDSFASFAETYTKGSIVKGTVTAVEPKTVTVALAEDVSGTIRVSELSDERVDDATTIVKVGDEVEAKITNIDRKNRTISLSVKAKDAQDEADAIKKYSRTEAASTTLGDLLKEKMASKEGELEHHHHHH”, the protein production result is “not failed”.
Regarding “MAGAAQSHAVPGFRRNMVTICAMTATIMQALDTTIANVALPYMQGSLSASQDQINWVLTSYIVAAAIMTAPVGWIANRFGRKRIFIICSAGFTIASVMCGLAQDITQMVVFRLLQGVFGAALVPLSQAVMLDSYALHERAKAMSIWGMGVMMGPIMGPSLGAWLTETYSWHWVFFVNLPFGAITVLGLAMFMDETDKNQELKFDWFGFAALAVGIGAMQLALDRGEQLDWFNSPEIIIESIVSVVGFYYFFAHSFTTERPFIQFAIFKDRNFVGGVVFMTVMGLVLFSTMALSSPFLQNVEGYPIMTAGLLLASRGCGTFVAMMIVGRIMRYIEARTLIATGLSLTCASLYVMTGWTDQTSVSSVVVTSIIQGFGFGLVFVPLSTVAFMTLPGQLRTDGTAMLTLVRNVASSVGISVVIAKLSSGTTTAHAILTEHINPFNNALQMPNVTGMIDLSTTTGKAMMDAIVTMQAQIIAFSHDYAMVMFLTAAAVPMAIIIGSTKAALRKQSEAPADHAAVME”, the protein production entry is “failed”.
Regarding “MIIIMAGGKSSRMGREKPVLKIAGKEMLLWVYEQAEAVGEVLVALSRHTPRTRELCLREGIEFVDTPGRGYVKDVQWLLREFGPFISLSSDIPFVKSSDIYSLLKEFDGKVSLTGVLPLEVVPKDLTPYSYMGYAIVGINGVAKEGEKFFVFSNPLLALNVNTPRELELAKRVAEIIRVRGIRLEHHHHHH”, the protein production entry is listed as “not failed”.
To “MEGMKGAVLITGASRGIGEATARLLHAKGYRVGLMARDEKRLQALAAELEGALPLPGDVREEGDWARAVAAMEEAFGELSALVNNAGVGVMKPVHELTLEEWRLVLDTNLTGAFLGIRHAVPALLRRGGGTIVNVGSLAGKNPFKGGAAYNASKFGLLGLAGAAMLDLREANVRVVNVLPGSVDTGFAGNTPGQAWKLKPEDVAQAVLFALEMPGHAMVSEIELRPTRPTSGPR” belongs “not failed”; to “VAARPPALCKGCSHRDVYDALNEVLTEYPNGRVFSDIGCYTLGALPPYEAINSCVDMGASITMAKGAADAGLFPAVSVIGDSTFTHSGITGLLDAINENSNITVIISDNESISMTGGQHSSAYGKVEAICRGIGVDPDHIRELLPVPKNHDELCSIIREEINYEGVSVIIPRRVCIQKHARDAKAAKRAKAKE”, “failed”.
